Assay results taken from patent publication US20150004189A1 (published 2015).
One block for each binder: values may come before it.

Assays:
[1] = biological target: T1, HLA-DQ molecule DQB1*0402 (human, UniProt P01909 24-216; P01920 33-230, limits assumed); assay: inhibition of radiolabeled peptide binding to purified HLA-DQ
T1 MHC II alpha: not shown
T1 MHC II beta: not shown

[2] = biological target: HLA-DQ molecule DQB1*0202 (human); assay: as above
[3] = biological target: T2, HLA-DQ molecule DQB1*0302 (human, UniProt P01909 24-216; P01920 33-230, limits assumed); assay: as above
T2 MHC II alpha: not shown
T2 MHC II beta: not shown

[4] = biological target: HLA-DQ molecule DQB1*0301 (human, UniProt P01909 24-216; P01920 33-230, limits assumed); assay: as above
[5] = biological target: HLA-DQ molecule DQB1*0503 (human); assay: as above
[6] = biological target: HLA-DQ molecule DQB1*0602 (human); assay: as above
[7] = biological target: T3, HLA-DP DPB1*0401 (human); assay: inhibition of radiolabeled peptide binding to purified HLA-DP
T3 chain 1: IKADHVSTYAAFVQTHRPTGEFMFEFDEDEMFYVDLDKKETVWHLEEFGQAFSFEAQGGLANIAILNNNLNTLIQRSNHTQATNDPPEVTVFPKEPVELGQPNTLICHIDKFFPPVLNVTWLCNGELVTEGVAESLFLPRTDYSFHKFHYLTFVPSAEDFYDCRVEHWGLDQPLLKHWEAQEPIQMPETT
T3 chain 2: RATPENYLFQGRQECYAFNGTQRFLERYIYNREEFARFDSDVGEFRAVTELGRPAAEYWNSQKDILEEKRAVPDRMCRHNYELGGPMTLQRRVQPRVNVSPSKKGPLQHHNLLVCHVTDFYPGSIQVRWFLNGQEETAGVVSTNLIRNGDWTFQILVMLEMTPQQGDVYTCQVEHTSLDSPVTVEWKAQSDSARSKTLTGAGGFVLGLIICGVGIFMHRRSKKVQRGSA

[8] = biological target: T4, HLA-DQ molecule DQB1*0501 (human, limits assumed); assay: inhibition of radiolabeled peptide binding to purified HLA-DQ
T4 MHC II alpha: not shown
T4 MHC II beta: not shown

[9] = biological target: HLA-DQ molecule DQB1*0602 (human); assay: inhibition of radiolabeled peptide binding to purified HLA
[10] = biological target: T5, HLA-DQ molecule DQB1*0501 (human, limits assumed); assay: as above
T5 MHC II alpha: not shown
T5 MHC II beta: not shown

[11] = biological target: HLA-DQ molecule DQB1*0503 (human); assay: as above
[12] = biological target: HLA-DQ molecule DQB1*0202 (human); assay: as above
[13] = biological target: HLA-DQ molecule DQB1*0502 (human); assay: as above

IC50 [7]: 2.04 µM
Binder: EGTVDFIFGEARSLY [Sal k 1 1 peptide 191-205, EGTVDFIFGEARSLY (Peptide ID 3324.1590)]

IC50 [8]: 0.729 µM
IC50 [5]: 0.301 µM
IC50 [6]: 0.432 µM
Binder: ERSLWIIFSKNLNIK [Cha o 1 (86-100) peptide ERSLWIIFSKNLNIK]

Further lines, the binder ahead of its results:

Binder: NLNIKLNMPLYIAGN [Cha o 1 (96-110) peptide NLNIKLNMPLYIAGN]
IC50 [1]: 30.4 µM
IC50 [2]: 39.7 µM
IC50 [3]: 50 µM
IC50 [4]: 31.9 µM
IC50 [5]: 10.7 µM
IC50 [6]: 2.86 µM

Binder: EIYNMVKFRMIAGQE [Der p 4 peptide 3324.0978 (position 386)]
IC50 [9]: 0.368 µM
IC50 [10]: 3.71 µM
IC50 [11]: 11.2 µM
IC50 [12]: 29.1 µM
IC50 [13]: 26.6 µM
